This note sets out measurements from article PMC5113729 (Nature structural & molecular biology, 2016).

To fix the notation:
T1: Sp Dcp2(1-243), as part of the single chain (fission yeast (Sp), UniProt O13828 1-243)
T1 sequence (looked up): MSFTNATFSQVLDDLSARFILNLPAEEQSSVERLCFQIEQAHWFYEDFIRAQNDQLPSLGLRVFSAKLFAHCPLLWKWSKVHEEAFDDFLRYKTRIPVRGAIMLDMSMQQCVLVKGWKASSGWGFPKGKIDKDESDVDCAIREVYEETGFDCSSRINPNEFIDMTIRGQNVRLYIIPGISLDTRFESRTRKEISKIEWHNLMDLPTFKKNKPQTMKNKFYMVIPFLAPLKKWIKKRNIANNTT

B1: Sp Dcp1(1-127) (natural protein, fission yeast (Sp), UniProt Q9P805 1-127, looked up)
chain: MEDENILRNAVNLQVLKFHYPEIESIIDIASHVAVYQFDVGSQKWLKTSIEGTFFLVKDQRARVGYVILNRNSPENLYLFINHPSNVHLVDRYLIHRTENQHVVGLWMFDPNDMSRIFNIVKESLLR
B2: Hs PNRC2(91-121) (domain or fragment)
chain: not shown

Assay [1] concerns the target T1, Sp Dcp2(1-243), as part of the single …. In words: crystal structure.
The target in the assay “Sp Dcp1(1-127)” is B1. The assay is described as follows: crystal structure.

As to B1, the binding result in assay [1] was “binds”. On to B2, for which the binding result in the assay with Sp Dcp1(1-127) is recorded as “binds”.
